Results from US20240245805A1 (Orna Therapeutics, Inc., priority 2020, published 2024).

B1: Equine rhinitis A virus (nucleic acid)
chain: AAGGGTTACTGCTCGTAATGAGAGCACATGACATTTTGCCAAGATTTCCTGGCAATTGTCACGGGAGAGAGGAGCCCGTTCTCGGGCACTTTTCTCTCAAACAATGTTGGCGCGCCTCGGCGCGCCCCCCCTTTTTCAGCCCCCTGTCATTGACTGGTCGAAGGCGCTCGCAATAAGACTGGTCGTTGCTTGGCTTTTCTATTGTTTCAGGCTTTAGCGCGCCCTTGCGCGGCGGGCCGTCAAGCCCGTGTGCTGTACAGCACCAGGTAACCGGACAGCGGCTTGCTGGATTTTCCCGGTGCCATTGCTCTGGATGGTGTCACCAAGCTGGCAGATGCGGAGTGAACCTTACGAAGCGACACACCTGTGGTAGCGCTGCCCAGAAGGGAGCGGAGCTCCCCCGCCGCGAGGCGGTCCTCTCTGGCCAAAAGCCCAGCGTTAATAGCGCCTTCTGGGATGCAGGAACCCCACCTGCCAGGTGTGAAGTGGACTAAGTGGATCTCCAATTTGGCCTGTTCTGAACTACACCATCTACTGCTGTGAAGAATGTCCTGAAGGCAAGCTGGTTACAGCCCTGATCAGGAGCCCCGCTCGTGACTCTCGATCGACGCGGGGTCAAAAACTGTCTAAGCAGCAGCAGAAACGCGGGAGCGTTTCTTTTTCCTCATTTGTTTC
modifications: lipid formulation; Equine rhinitis A virus
B2: Equine rhinitis B virus 1 (nucleic acid)
chain: CGACAGGCACAGGTCGCTCCGAGTTCTAGTAGTGTGGGAACTTGTTACTACTGATGAAACGAGGTAGTGACACTCAGTACCTGCGAACGAGGTCGGGGCCCTCCCTTCTTCCTTCACCCAACTTTCACTTTTCGTTCCACTTTAGCAGGGGTCTTCTTTCTATCCCCCTGGCGGCATTGGAACTAGCCGTCGCGTCTTAACGCGCAGCCCTGAAGGCCCCACACCTTGTGGATCTTGCCGTGGGTATGTTTCTGGCATGTGTTTCTCAAGCCTGCAACCGAAGCCGAACAGCCACATGAACAGTTTGAGCGTGGTAGCGCTGTGTGAGTTGGCGGTGGATCCCCCTCGTGGTAACACGAGCCCCCGTGGCCAAAAGCCCAGTGTTTACAGCACCTCTCACATCCAGGACGACCCCATCCTGGCGCTCACTCTTAGTAGTATGGCTTAGTACGCATTAGGTGGTAAGCCGAGCTCTCCCTCGGCCTTGTTCTGAATGCACACATGTCTAGGGGCTAAGGATGTCCTACAGGTACCCGCACGTAACCTTCAGAGAGTGCGGATCTGAGTAGGAGACCGTGGTGCACTGCTTTACAGATGCAGCCCGGTTTAAAAAGCGTCTATGCCCCTACAGGGTAGCGGTGGGCCGCGCCCTTTCCTTTTAAAACTACTTGTTCT
modifications: lipid formulation; source: /note="Description of Unknown: Equine rhinitis B virus 1 sequence"
B3: Poecivirus BCCH-449 (nucleic acid, listed as Poecivirus sp.)
DNA: ACTACACAATCGCAACACGCGCAAGTTTGTAGTTTGATTGGCGTGCAAATGTCAAATCAAGCATATAACACAATTTGGTGGCTGTTGGTGTTTGTTATAGGAATTTTGGTTGTGTTGAAATTGTGGATGTGTAGGAAATATGCACAATTACGTCAGCGTCAGGAGTTTTATAACCTGGCGCAACACCAAAATGGTCTTCGCGCTTTAACATCACCAGCGAGGTGTAAACAAATTGAAGTTGAATTAGATCGTGTATAGGCCAGGGAACCATCCCTCCCAACGCCACATCTTGTGGGGAAGTTGGGATAATGGTGGGTCTATATGAATTGGTCTGTAGACCCACAGTGAAGAGTGAATAGTATGCTTGCGGTTCCATTTGTTAATGGTCTAGCATGGGTGGGGGCGGCAACCCCGTGAGGGGTTCCCCACTGGCCAAAAGCCCAGGGGTTAGTCATTTCAACCAAGGAAGCTGGTAACCTGGTGACCTGAACTTGAGTGGTGAGACCCCCTTGCTAGAGTGTGTAAACCGATTGTAAGCATTTTGTTTGCTTAGTATCTGTGGTATAAGCAGTCAATTTTGTATAGGCTCAAGGCTGTGGTAGTTAGTAGATGCCCGGAAGGTTATTACTGATCCGGGGACCGTGACTATACATTAGGTAAACCGGTTTAAAAACC
modifications: lipid formulation
B4: Guereza hepacivirus (nucleic acid, listed as Hepacivirus sp.)
chain: CACTCAATACTACACTCCGCATTTGGGGAGAAGCGCTGGCGTTCGCGGAACCGCGTTAACCATACGCGTAGTACGAGTGCGACAGACCCCGGTGCTACTGGTGGTAGCGAGACACGAGCCGAAGTCTGTGGGGGGAACTCCACTTAGAGGGCATGCCCGGGCGTAGGCTTCTGAGTTGGGATGGGCCCCAACTTGGCCCCTGAGTGGGGGGGTGTTACGACCTGATAGGGTGCGGGCTGGCGCCTACCACTTTCCAGTCGTACATGAGTC
modifications: lipid formulation
B5: Enterovirus sp. isolate CPML (nucleic acid, listed as Enterovirus sp.)
chain: ACTCTGGTATCACGGTACCTTTGCACGCCTATTTTATACCCCTTCCCCATCGTAACTTAGAAGCAACAAACAAACTGCCCAATAGCAGCACAACACCCAGTTGTGTTAGGGGCAAGCACTTCTGTTTCCCCGGAAGGGTCTGACGGTATGCTGTACCCACGGCAGAAGTATGACCTACCGTTAACCGGCCATGTACTTCGAGAAGCCTAGTACCATTATGAAGGTTGATTGATGTTACGCTCCCCAGCAACCCCAGCTGGTAGTTCTGGTCGATGAGTCTCGGCATTCCCCACGGGCGACCGTGGCCGAGGCTGCGTTGGCGGCCAGCCTACACCATACGGTGTAGGACGTCAAGATACTGACATGGTGTGAAGAGCCTATTGAGCTACGTGGTAGTCCTCCGGCCCCTGAATGCGGCTAATCCTAACTCCGGAGCATCCGCCAGTAAGCCCACTGGAAGGGTGTCGTAATGCGAAAGTCTGGAGCGGAACCGACTACTTTGGGTGTCCGTGTTTCCTGTTTTACTTATTGTTTGGCTGCTTATGGTGACAACTTATAGTTATCATCATAAGCTACTTGGTCTTGCCAACCGGAGAATTATTTGGTTATTTGTTGGTTTCATAAACCTACAGTCGTATTTTCCTGTCTTATTAATTGTTCTCAAAATTAACAACA
modifications: lipid formulation
B6: Grapevine associated narnavirus-1 (nucleic acid, listed as Narnavirus sp.)
chain: GCCCGGGGGGTGCAGTCCTGTGAAAGGGTCTGCACCATACTATATATGTATATGATTACATCCCAAAAGGCGACTTCGTTCAGGTTTTAAATCTGACGTAGGTCCAGTAAATAAGCATGTCAAAACATGTAAGTTTATCCTGTAATCTACTCTCATAAGATGAGATAAGATGATATTGCAGTTCCCATGTAAATAAATCCATTATGAATTCATTCATATAAGGTAGAAGTGGTAACTATGGTTGAAACATTAATATAAAACGGTCATTTTGCATGAACGTCATTAAGGAACTGGCATACCAATGTCTATTTAGTGACTATGATATTTAGAGTATCCCTTATATTAATTAACAATTATTCCTTTTAGCATATCATCCGACAACAAATTTTAAAAGAAGAAATATTACTCATTAAAA
modifications: lipid formulation
B7: Equine arteritis virus (nucleic acid)
chain: GCTCGAAGTGTGTATGGTGCCATATACGGCTCACCACCATATACACTGCAAGAATTACTATTCTTGTGGGCCCCTCTCGGTAAATCCTAGAGGGCTTTCCTCTCGTTATTGCGAGATTCGTCGTTAGATAACGGCAAGTTCCCTTTCTTACTATCCTATTTTCATCTTGTGGCTTGACGGGTCACTGCCATCGTCGTCGATCTCTATCAACTACCCTTGCGACT
modifications: lipid formulation; source: /note="Description of Unknown: Equine arteritis virus sequence"
B8: Enterovirus AN12 (nucleic acid, listed as Enterovirus sp.)
chain: TACCGCTGCACCAGTGAGCTGGTACGCTAGTACCTTCGCACGGAGTAGATGGCATCCCCCACCCCGTAACTTAGAAGCAAAGTACACATCTGGCCAATAGTGGCGCTGCATCCAGCCGCGCAACGGTCAAGCACTTCTGTTTCCCCGGTCCGCAAGGGTCGTTATCCGCCCAGTCCACTACGGAAAGCCTACTAACCATTGAAGCTATCGAGAGGTTGCGCTCGGCCACGACCCCGGTGGTAGCTCTGAGTGATGGGGCTCGCAAACACCCCCGTGGTAACACGGATGCTTGCCCGCGCGTGCACTCGGGTTCAGCCTATTGGTTGTTCACCTCAACATAGTGTAAATGGCCAAGAGCCTACTGTGCTGGATTGGTTTTCCTCCGGAGCCGTGAATGCTGCTAATCCCAACCTCCGAGCGTGTGCGCACAATCCAGTGTTGCTACGTCGTAACGCGTAAGTTGGAGGCGGAACAGACTACTTTCGGTACTCCGTGTTTCTTTTGTTTTATTTTGAATTTTATGGTGACAATTGCTGAGATTTGCGAATTAGCGACTCTACCGCTGAACATTGCCCTGTACTACCTAATCGCATTTCACAAAACCTCAGAGATACCAAGCTCTTACATTGATCTGCTTGTTTTCCTGAATCTCAAATATAAATTGGAACAAGCAAA
modifications: lipid formulation
B9: Goat torovirus (nucleic acid, listed as Torovirus sp.)
chain: GTACTTACAAGCGGGTTAAACCGCCCTCCGGAACGGTTACAACCCCCTCCCGAACGTGCGCTTGACGTGACTGGTTCTCAGTCTGGCTTTCTGAGAAATACTCCAGGGTTGTATCCCACCATCTTGACCTCTGGTCATTTTGGTAACACCATAACCAAACAAACTCTACACACCTAACCCACCTCCAGCTTGCTGCAGGCCTTTTGGACTAAACGGGTTTAGGTGTTTTGTGACCAACTCGTCTACCCACCTCCAGTTTTACTGCAGGCCTTTTTGGACTAAACGGCTTTAGACTTTTGTGGTTAGTTTTTAACTACCCACTGTTTAGCCGCCAACCTGATTTTCATTGTTGTAAAATTTTGTGTTTATACACTATTTTCATACGGTTGGCAGTTTGTTTGGTTGTTTGCACAGTTTTTGTTGATACCAATTTTTACTGTGCTTTTAGTGTATTCTGCTAAGGCTGTATTTTACATACTTAGTTTGGTTGAAGCAATTTTTACAACATTTATATTGTTTTTGATTTCTAAGGTAAAGAGTCTTAGGAAACACCATAGACGCCATTCTTGTGGTGTCTAGTTCCAACTAATCTGGCAAACAAGTACCAAGTCATTGACTCACTTTGGAGTGAGACTTACGAGTACCAATTTGCCTATTTCGGACATCCATATAAAG
modifications: lipid formulation

System: HEK293 cells
Type: cell-based, human
Settings: circular RNA encoding Gluc with the listed IRES (UTR truncated to 675 nt) transfected into HEK293 cells; supernatant after 24 hours

| Molecule | Expression (luminescence from secreted Gluc protein) |
| --- | --- |
| B1 | 3.73E+05 |
| B2 | 1.01E+05 |
| B3 | 3.43E+05 |
| B4 | 1.38E+05 |
| B5 | 6.83E+07 |
| B6 | 1.30E+05 |
| B7 | 1.89E+05 |
| B8 | 3.87E+06 |
| B9 | 1.19E+05 |
